# T1: HA-NFATc2 (human, UniProt Q13469-2 1-921)
# T1 sequence (looked up): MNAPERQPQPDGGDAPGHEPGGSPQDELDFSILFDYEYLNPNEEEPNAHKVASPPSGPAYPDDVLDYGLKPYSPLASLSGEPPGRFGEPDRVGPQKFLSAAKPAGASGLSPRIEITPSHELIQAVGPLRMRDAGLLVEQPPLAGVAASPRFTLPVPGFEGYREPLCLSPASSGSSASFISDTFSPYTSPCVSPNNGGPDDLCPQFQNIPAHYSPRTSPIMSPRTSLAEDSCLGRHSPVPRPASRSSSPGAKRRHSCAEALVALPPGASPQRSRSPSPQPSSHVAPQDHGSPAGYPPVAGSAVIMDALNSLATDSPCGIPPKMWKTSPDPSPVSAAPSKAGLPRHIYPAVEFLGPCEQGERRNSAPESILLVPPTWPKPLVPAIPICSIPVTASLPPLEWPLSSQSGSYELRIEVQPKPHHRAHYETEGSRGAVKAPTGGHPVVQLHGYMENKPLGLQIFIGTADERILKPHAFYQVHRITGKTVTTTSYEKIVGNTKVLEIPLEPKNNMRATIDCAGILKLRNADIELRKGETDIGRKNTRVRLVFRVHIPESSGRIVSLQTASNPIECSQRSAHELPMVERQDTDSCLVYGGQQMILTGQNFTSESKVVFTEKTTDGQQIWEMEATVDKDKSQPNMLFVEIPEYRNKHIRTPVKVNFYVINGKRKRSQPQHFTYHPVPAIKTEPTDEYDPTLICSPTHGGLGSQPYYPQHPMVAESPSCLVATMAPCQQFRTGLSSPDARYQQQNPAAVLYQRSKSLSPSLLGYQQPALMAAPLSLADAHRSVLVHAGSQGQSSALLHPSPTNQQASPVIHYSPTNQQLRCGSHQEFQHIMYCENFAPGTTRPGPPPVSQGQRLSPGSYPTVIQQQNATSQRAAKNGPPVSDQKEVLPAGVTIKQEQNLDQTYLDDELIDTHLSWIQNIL
# T2: GST-NFATc2 (full-length) (human, UniProt Q13469-2 1-921)
# T2 sequence (looked up): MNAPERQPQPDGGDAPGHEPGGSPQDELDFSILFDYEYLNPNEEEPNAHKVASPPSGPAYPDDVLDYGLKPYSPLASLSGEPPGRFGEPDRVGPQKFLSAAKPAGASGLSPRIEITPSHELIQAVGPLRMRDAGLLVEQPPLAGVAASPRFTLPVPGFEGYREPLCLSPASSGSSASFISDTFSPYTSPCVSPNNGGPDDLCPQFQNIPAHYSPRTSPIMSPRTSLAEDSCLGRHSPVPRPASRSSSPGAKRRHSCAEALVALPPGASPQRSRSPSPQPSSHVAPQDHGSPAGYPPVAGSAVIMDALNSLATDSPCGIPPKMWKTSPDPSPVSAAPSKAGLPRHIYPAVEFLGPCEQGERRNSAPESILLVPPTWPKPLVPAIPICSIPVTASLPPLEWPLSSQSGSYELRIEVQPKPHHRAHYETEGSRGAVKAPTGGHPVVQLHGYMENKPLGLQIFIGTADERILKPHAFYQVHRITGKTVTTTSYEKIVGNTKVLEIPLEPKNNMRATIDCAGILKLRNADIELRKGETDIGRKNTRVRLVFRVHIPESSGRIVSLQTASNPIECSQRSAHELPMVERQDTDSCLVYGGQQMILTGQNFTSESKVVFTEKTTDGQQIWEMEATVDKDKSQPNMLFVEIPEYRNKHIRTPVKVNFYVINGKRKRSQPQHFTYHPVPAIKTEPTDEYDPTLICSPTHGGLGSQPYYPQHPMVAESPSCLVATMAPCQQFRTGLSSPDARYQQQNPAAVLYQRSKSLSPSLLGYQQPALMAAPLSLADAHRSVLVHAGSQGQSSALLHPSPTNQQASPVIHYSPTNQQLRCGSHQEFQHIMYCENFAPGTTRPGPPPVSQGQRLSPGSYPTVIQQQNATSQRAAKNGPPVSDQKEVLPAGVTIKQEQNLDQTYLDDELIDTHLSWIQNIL
# B1: purified cJun (natural protein, human, UniProt P05412 1-331, looked up)
# chain: MTAKMETTFYDDALNASFLPSESGPYGYSNPKILKQSMTLNLADPVGSLKPHLRAKNSDLLTSPDVGLLKLASPELERLIIQSSNGHITTTPTPTQFLCPKNVTDEQEGFAEGFVRALAELHSQNTLPSVTSAAQPVNGAGMVAPAVASVAGGSGSGGFSASLHSEPPVYANLSNFNPGALSSGGGAPSYGAAGLAFPAQPQQQQQPPHHLPQQMPVQHPRLQALKEEPQTVPEMPGETPPLSPIDMESQERIKAERKRMRNRIAASKCRKRKLERIARLEEKVKTLKAQNSELASTANMLREQVAQLKQKVMNHVNSGCQLMLTQQLQTF
# How the values were obtained:
# Assay in all cases: pull-down
# purified cJun = molecular target: B1
# HA-NFATc2 = molecular target: T1, HA-NFATc2
# GST-NFATc2 (full-length) = molecular target: T2, GST-NFATc2 (full-length)
binder,measurement,setting,value
"GST-NFATc2(688–921) (domain or fragment, human, UniProt Q13469-2 688-921, looked up) EYDPTLICSPTHGGLGSQPYYPQHPMVAESPSCLVATMAPCQQFRTGLSSPDARYQQQNPAAVLYQRSKSLSPSLLGYQQPALMAAPLSLADAHRSVLVHAGSQGQSSALLHPSPTNQQASPVIHYSPTNQQLRCGSHQEFQHIMYCENFAPGTTRPGPPPVSQGQRLSPGSYPTVIQQQNATSQRAAKNGPPVSDQKEVLPAGVTIKQEQNLDQTYLDDELIDTHLSWIQNIL",binding result,purified cJun,binds
"GST-cJun(1–317) (domain or fragment, human, UniProt P05412 1-317, looked up) MTAKMETTFYDDALNASFLPSESGPYGYSNPKILKQSMTLNLADPVGSLKPHLRAKNSDLLTSPDVGLLKLASPELERLIIQSSNGHITTTPTPTQFLCPKNVTDEQEGFAEGFVRALAELHSQNTLPSVTSAAQPVNGAGMVAPAVASVAGGSGSGGFSASLHSEPPVYANLSNFNPGALSSGGGAPSYGAAGLAFPAQPQQQQQPPHHLPQQMPVQHPRLQALKEEPQTVPEMPGETPPLSPIDMESQERIKAERKRMRNRIAASKCRKRKLERIARLEEKVKTLKAQNSELASTANMLREQVAQLKQKVMNHVN",binding result,HA-NFATc2,binds
B1,binding result,GST-NFATc2 (full-length),binds

# Source: publication PMC2918688 (Molecular immunology, 2010)
